# ± gives the standard deviation of the averaged measurements.
# Test system: ATP
# Test: switch fluorescence ratio, 500 uM ATP over buffer (Cy3 cluster intensity, sum of 5 cycles each) (fold (ratio)); higher = stronger signal-on switching upon ATP binding; sequences stand for … in TCGTCGGCAGCGTCAGATGTGTATAAGAGACAGTTTTTTTTTTTTTTTTTTTTTTTTT…TC
# Settings: aptamer strand: ATP DNA aptamer (quencher-CACCTGGGGGAGTATTGCGGAGGAAGG + anchor), 100 nM annealed; ATP concentration: 500 uM
# How it was run: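 Values give the fluorescence ratio for each switch-domain sequence, averaged from per-cluster ratios of summed target-cycle to summed buffer-cycle Cy3 intensity. The Cy3-labelled switching-strand clusters sat on a modified Illumina MiSeq flow-cell, were annealed to 100 nM quencher-labelled ATP aptamer, and were imaged in selection buffer, then after 15 min with 500 uM ATP at 22 °C. Five cycles ran with NaOH stripping and re-annealing between them, and clusters outside 100-1000 RFU were excluded.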
# 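Further: ATP exposure 15 min at 22 °C before imaging.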
row,Sequence,switch fluorescence ratio
1,TTTCCAAGGT,1.12 ± 0.11
2,AAGCATGTTG,0.966 ± 0.021
3,ACAATGGGTA,1.03 ± 0.024
4,TGATTGGTTC,0.9788 ± 0.0029
5,TTGTTCAAGT,0.998 ± 0.043
6,TAGAAATTGT,0.997 ± 0.039
7,GGAAGTAGAT,1.01 ± 0.028
8,AAGTTAAAAT,1.012 ± 0.0074
9,TGGTACCACT,0.996 ± 0.014
10,CCCTGGACGG,0.9883 ± 0.0053
11,TTCGATTGGG,0.95725 ± 0.00037
12,CTAACGGTTT,0.976 ± 0.028
13,AAATGCGTTT,0.979 ± 0.019
14,GGGTTGATGA,1.012 ± 0.0093
15,CATTTTATTT,0.996 ± 0.032
16,AAGTCGGCTG,0.9757 ± 0.002
17,CATTGCGAGG,1.02 ± 0.039
18,AAGTAGGAGC,1.06 ± 0.19
19,TGCCATGTTT,0.966 ± 0.014
20,GACGCACGAA,1.58 ± 0.057
21,TTTTTCGATA,1.06 ± 0.029
22,CAACTCTCTG,1 ± 0.038
23,AGGAAAGTCT,1.02 ± 0.066

row,Sequence,switch fluorescence ratio
1,TGGGGCGACT,0.991 ± 0.021
2,TTGGCATATG,1.07 ± 0.085
3,TTCTGAATAT,1.01 ± 0.024
4,CAAGGATAGG,0.9984 ± 0.0084
5,TTTGTCGCTG,1.01 ± 0.038
6,TGGTTGCGTG,1 ± 0.015
7,ATTAGATGAC,1.02 ± 0.016
8,ACTTCGGGGC,1.12 ± 0.027
9,TAATATAGTG,1.02 ± 0.045
10,ACATTGACGC,1.08 ± 0.021
11,ATAAATTAGT,0.998 ± 0.018
12,CCTGGATCGG,1.09 ± 0.048
13,GGCGGGGACC,0.982 ± 0.025
14,TCTGACGGTG,1.01 ± 0.017
15,ACAGGTGGAA,1.235 ± 0.01
16,GTTGCAGGGG,1.08 ± 0.013
17,TAATTGGACT,1.01 ± 0.013
18,TTTACAATCG,0.9899 ± 0.0098
19,GGTCATGTTT,0.993 ± 0.043
20,TAAGAGAAGT,1.018 ± 0.0073
21,GCGGATCAGC,1.01 ± 0.059
22,TTTTGGTCAA,1.02 ± 0.037
23,CCTGGGTACC,1.039 ± 0.0072

row,Sequence,switch fluorescence ratio
1,GATGGGTATA,1.0016 ± 0.00067
2,TCGGGCGGGG,1.036 ± 0.0098
3,TCGCTTGTTG,1.03 ± 0.022
4,GCCCTGGAAC,1.01 ± 0.022
5,TGCTGCGGTG,0.993 ± 0.0084
6,TAGAGGCTAA,0.977 ± 0.013
7,TATGTAGGAG,0.994 ± 0.018
8,TGATGATGGG,0.985 ± 0.038
9,TATTAAGGGA,0.995 ± 0.012
10,AAAACCGGAT,1.11 ± 0.18
11,TGAAGGTCGT,0.99 ± 0.029
12,TAATGGTCTT,1.02 ± 0.14
13,AGCTGTTTAC,1.09 ± 0.016
14,TTCGGAGCGG,1.34 ± 0.24
15,AGTCTACTAT,1 ± 0.0088
16,ATAGTATGGG,0.99 ± 0.046
17,ATTTGCATGG,1.09 ± 0.2
18,ATAATTTCGG,1.01 ± 0.026
19,AAGCTTGTTG,0.992 ± 0.038
20,GGTTGGGGTT,0.942 ± 0.039
21,ATAGTAGTAG,0.998 ± 0.011
22,AAGGCTGGGG,0.9781 ± 0.0058
23,AGCAAAAGGA,1.16 ± 0.22

row,Sequence,switch fluorescence ratio
1,GGGTATTTTT,0.994 ± 0.014
2,TATATGTGGG,0.9705 ± 0.0077
3,TTTTCTTTAA,0.9798 ± 0.0051
4,ACTTGTGCAG,0.978 ± 0.026
5,ATGGCACCGG,1.018 ± 0.0069
6,GAAACTGGAA,0.997 ± 0.016
7,TGCTGTTGGC,0.928 ± 0.025
8,GCGGAGAGAT,1.27 ± 0.33
9,GGGTTGTAAG,0.986 ± 0.013
10,TGAAGTTTAC,2.03 ± 1.4
11,TAATTTCCTT,1.06 ± 0.16
12,TAATCGTC,0.968 ± 0.023
13,CCAATTTTAA,0.985 ± 0.029
14,ACGAGTCTGC,0.96588 ± 0.00086
15,CAAGGCATTG,0.978 ± 0.02
16,TAAGTGTATG,1.007 ± 0.0034
17,CGTATATGGG,0.995 ± 0.022
18,CCAGTTATGG,0.999 ± 0.068
19,ACAGACAGCG,1.06 ± 0.022
20,AACCGGGGTT,0.996 ± 0.046
21,GAGGGGCGCG,0.997 ± 0.065
22,TGTAGTAGCA,1.04 ± 0.034
23,TAGAGAAATT,0.976 ± 0.023

row,Sequence,switch fluorescence ratio
1,TTCGAGTCGT,1.006 ± 0.0034
2,TGCCCGCCGT,1.03 ± 0.067
3,CGGAGGTATA,1.14 ± 0.017
4,ACATGGCATC,1.05 ± 0.046
5,CGGACCGGGA,1.06 ± 0.012
6,CAGGGTTGGG,1 ± 0.019
7,TCACTGGGGA,0.995 ± 0.03
8,TAGATCATGT,1.016 ± 0.0026
9,ACCTGACTTG,1.06 ± 0.014
10,TATTTTTTAT,1.022 ± 0.0017
11,AGGCTAACGA,1.015 ± 0.0049
12,TATGGTCTTA,0.987 ± 0.021
13,TACAGAGGTT,1.01 ± 0.059
14,CTCGTGGCGG,1.02 ± 0.076
15,TAGGTTGCTT,1.02 ± 0.021
16,TTGGGACGGT,0.9972 ± 0.0076
17,CCAAAGGTTT,1.13 ± 0.22
18,TCTATGGTGA,1.0391 ± 0.00096
19,GGGGGGGCTG,1.06 ± 0.4
20,GTATGCGTGC,1.04 ± 0.017
21,TGGGGCATTT,1 ± 0.036
22,AGTATAATTT,0.978 ± 0.045
23,GGTATATTAA,1.02 ± 0.023

row,Sequence,switch fluorescence ratio
1,CACGGAGGAG,1.05 ± 0.055
2,TTTAATTTAG,1.02 ± 0.024
3,TATCTGGTAG,1 ± 0.025
4,GGGGTTTTGT,1.01 ± 0.011
5,TGTGAAAGGC,1.04 ± 0.03
6,AGGAAATTTT,1.01 ± 0.025
7,TTGGTAGAAA,0.982 ± 0.024
8,TTTTATATTT,1 ± 0.034
9,CGCGTAGACA,0.992 ± 0.055
10,TTATAGAATG,0.985 ± 0.038
11,ATGAGGGCCA,1.01 ± 0.059
12,ATCTGGAACG,0.988 ± 0.02
13,TACTAGTACA,1.09 ± 0.018
14,TTTTGGAGGT,1.01 ± 0.013
15,CCCGTATATC,2.72 ± 0.44
16,TTGCTTACGG,1.02 ± 0.013
17,TTAAGGACGT,0.984 ± 0.016
18,ACTGTTATAT,1.044 ± 0.0053
19,TTACTTCATA,1.021 ± 0.0045
20,ATTACATGTA,0.9871 ± 0.0098
21,CTAAGTTCTT,0.987 ± 0.008
22,GTAGTGGCAG,0.992 ± 0.049
23,TAAGGGGAGG,1 ± 0.017

row,Sequence,switch fluorescence ratio
1,CAAATGTGCT,0.986 ± 0.015
2,GAAGGTAGAG,0.99 ± 0.042
3,AGAGTCTTTT,0.9934 ± 0.0016
4,GGGAGTATAG,0.9907 ± 0.0089
5,AGGGAAACGG,0.96 ± 0.018
6,ATGCTGCCTG,1.01 ± 0.019
7,TTGTGGAAGC,1.01 ± 0.025
8,CGTTTGGTAG,0.964 ± 0.019
9,AGAAAATTGT,1.01 ± 0.025
10,TGTTGTCTTG,0.98616 ± 6.6e-05
11,ATCGTGTTGT,1.02 ± 0.015
12,ATAGTTGCGG,1.047 ± 0.0011
13,TTTGACGGTT,1.03 ± 0.015
14,CGTATTCTGT,0.9845 ± 0.0037
15,GGGGGTGTAA,0.986 ± 0.018
16,TTCTTGATTT,1 ± 0.035
17,AAGGGGGGAT,0.974 ± 0.02
18,GTTCTTTATC,0.994 ± 0.018
19,GAGGTCAAGG,0.987 ± 0.033
